Data: IntAct's records for PubMed 8599766

B1: Insulin receptor substrate 1 (Homo sapiens), P35568 (parent)
chain: MASPPESDGFSDVRKVGYLRKPKSMHKRFFVLRAASEAGGPARLEYYENEKKWRHKSSAPKRSIPLESCFNINKRADSKNKHLVALYTRDEHFAIAADSEAEQDSWYQALLQLHNRAKGHHDGAAALGAGGGGGSCSGSSGLGEAGEDLSYGDVPPGPAFKEVWQVILKPKGLGQTKNLIGIYRLCLTSKTISFVKLNSEAAAVVLQLMNIRRCGHSENFFFIEVGRSAVTGPGEFWMQVDDSVVAQNMHETILEAMRAMSDEFRPRSKSQSSSNCSNPISVPLRRHHLNNPPPSQVGLTRRSRTESITATSPASMVGGKPGSFRVRASSDGEGTMSRPASVDGSPVSPSTNRTHAHRHRGSARLHPPLNHSRSIPMPASRCSPSATSPVSLSSSSTSGHGSTSDCLFPRRSSASVSGSPSDGGFISSDEYGSSPCDFRSSFRSVTPDSLGHTPPARGEEELSNYICMGGKGPSTLTAPNGHYILSRGGNGHRCTPGTGLGTSPALAGDEAASAADLDNRFRKRTHSAGTSPTITHQKTPSQSSVASIEEYTEMMPAYPPGGGSGGRLPGHRHSAFVPTRSYPEEGLEMHPLERRGGHHRPDSSTLHTDDGYMPMSPGVAPVPSGRKGSGDYMPMSPKSVSAPQQIINPIRRHPQRVDPNGYMMMSPSGGCSPDIGGGPSSSSSSSNAVPSGTSYGKLWTNGVGGHHSHVLPHPKPPVESSGGKLLPCTGDYMNMSPVGDSNTSSPSDCYYGPEDPQHKPVLSYYSLPRSFKHTQRPGEPEEGARHQHLRLSTSSGRLLYAATADDSSSSTSSDSLGGGYCGARLEPSLPHPHHQVLQPHLPRKVDTAAQTNSRLARPTRLSLGDPKASTLPRAREQQQQQQPLLHPPEPKSPGEYVNIEFGSDQSGYLSGPVAFHSSPSVRCPSQLQPAPREEETGTEEYMKMDLGPGRRAAWQESTGVEMGRLGPAPPGAASICRPTRAVPSSRGDYMTMQMSCPRQSYVDTSPAAPVSYADMRTGIAAEEVSLPRATMAAASSSSAASASPTGPQGAAELAAHSSLLGGPQGPGGMSAFTRVNLSPNRNQSAKVIRADPQGCRRRHSSETFSSTPSATRVGNTVPFGAGAAVGGGGGSSSSSEDVKRHSSASFENVWLRPGELGGAPKEPAKLCGAAGGLENGLNYIDLDLVKDFKQCPQECTPEPQPPPPPPPHQPLGSGESSSTRRSSEDLSAYASISFQKQPEDRQ

Variants of: B1
Conditions: with il4ra_human IL4R

effect of a mutation on the interaction | Variant
decreasing interaction | R227Q
disrupting interaction | R212Q;R227Q
decreasing interaction | M257A
decreasing interaction | R212Q
